# Test results as given in US20040002442A1 (Bayer, published 2004).
# Ends that are not written are not given here. * marks the point of attachment. Palmitoyl = CCCCCCCCCCCCCCCC(=O)*
# B1: G87 (peptide)
# peptide: HSQGTFTSDYAKYLDARRAK(Palmitoyl)EFIAWLVKGR-NH2
# modifications: N-terminus assumed
# SMILES: CCCCCCCCCCCCCCCC(=O)NCCCC[C@H](NC(=O)[C@H](C)NC(=O)[C@H](CCCNC(=N)N)NC(=O)[C@H](CCCNC(=N)N)NC(=O)[C@H](C)NC(=O)[C@H](CC(=O)O)NC(=O)[C@H](CC(C)C)NC(=O)[C@H](Cc1ccc(O)cc1)NC(=O)[C@H](CCCCN)NC(=O)[C@H](C)NC(=O)[C@H](Cc1ccc(O)cc1)NC(=O)[C@H](CC(=O)O)NC(=O)[C@H](CO)NC(=O)[C@@H](NC(=O)[C@H](Cc1ccccc1)NC(=O)[C@@H](NC(=O)CNC(=O)[C@H](CCC(N)=O)NC(=O)[C@H](CO)NC(=O)[C@@H](N)Cc1c[nH]cn1)[C@@H](C)O)[C@@H](C)O)C(=O)N[C@@H](CCC(=O)O)C(=O)N[C@@H](Cc1ccccc1)C(=O)N[C@H](C(=O)N[C@@H](C)C(=O)N[C@@H](Cc1c[nH]c2ccccc12)C(=O)N[C@@H](CC(C)C)C(=O)N[C@H](C(=O)N[C@@H](CCCCN)C(=O)NCC(=O)N[C@@H](CCCNC(=N)N)C(N)=O)C(C)C)[C@@H](C)CC
# Target: T1, GLP-1 receptor present in the plasma membranes isolated from RINm5F cells (UniProt P32301 22-463, limits assumed)
# T1 sequence (looked up): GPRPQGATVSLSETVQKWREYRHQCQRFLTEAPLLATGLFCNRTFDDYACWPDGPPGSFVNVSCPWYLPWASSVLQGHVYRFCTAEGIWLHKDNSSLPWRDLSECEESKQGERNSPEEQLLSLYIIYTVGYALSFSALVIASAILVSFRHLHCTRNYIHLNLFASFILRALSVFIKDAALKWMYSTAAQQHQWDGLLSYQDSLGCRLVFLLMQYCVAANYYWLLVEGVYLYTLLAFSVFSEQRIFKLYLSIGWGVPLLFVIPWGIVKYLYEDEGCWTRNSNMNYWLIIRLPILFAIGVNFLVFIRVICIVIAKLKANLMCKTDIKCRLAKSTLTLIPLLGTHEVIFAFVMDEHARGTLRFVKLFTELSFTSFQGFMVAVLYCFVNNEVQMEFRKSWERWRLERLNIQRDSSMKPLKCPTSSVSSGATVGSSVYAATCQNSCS
# Assay: cell-based or functional assay
Binder,"% GLP1 max, cAMP SPA in RINm5F cells [%]","Relative Potency (%), cAMP SPA in RINm5F cells [%]"
HSQGTFTSDYAKYLDARRAKEFIAWLVKGR-NH2 [G27],98.1,13.4
HSQGTFTSDYARYLDARRAKEFIAWLVKGR-NH2 [G55],116,18.6
HSQGTFTSDYAAYLDARRAKEFIAWLVKGR-NH2 [G56],115,37.2
HSQGTFTSDYAKYLDAARAKEFIAWLVKGR-NH2 [G57],132,18.3
B1,100,6.1
HSQGTFTSDYARYLDARRAREFIAWLVRGRGK [G85],95.8,64.5

# Target: T2, glucagon receptor present in the plasma membranes isolated from rat liver (rat, UniProt P30082 27-485)
# Assay: cell-based or functional assay
# T2 sequence (P30082 27-485): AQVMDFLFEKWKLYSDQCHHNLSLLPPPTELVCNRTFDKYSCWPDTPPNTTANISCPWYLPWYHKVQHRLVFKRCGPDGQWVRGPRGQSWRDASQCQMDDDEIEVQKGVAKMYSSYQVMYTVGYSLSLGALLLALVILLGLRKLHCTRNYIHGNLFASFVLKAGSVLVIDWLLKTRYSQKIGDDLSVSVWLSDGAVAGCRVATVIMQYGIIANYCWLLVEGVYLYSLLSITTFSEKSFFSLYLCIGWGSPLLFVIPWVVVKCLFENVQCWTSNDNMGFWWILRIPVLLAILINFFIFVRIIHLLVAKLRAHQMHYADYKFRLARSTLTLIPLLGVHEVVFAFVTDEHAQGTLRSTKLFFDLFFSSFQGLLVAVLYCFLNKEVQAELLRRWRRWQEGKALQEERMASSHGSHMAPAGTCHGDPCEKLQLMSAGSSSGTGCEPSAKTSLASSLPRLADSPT
row,Binder,"% Inhib glucagon stimulated cAMP increase (10 uM peptide, rat hepatocytes) [%]"
1,HSQGTFTSDYAKYLDARRAKEFIAWLVKGR-NH2 [G27],31
2,HSQGTFTSDYARYLDARRAKEFIAWLVKGR-NH2 [G55],32.1
3,HSQGTFTSDYAAYLDARRAKEFIAWLVKGR-NH2 [G56],28.6
4,HSQGTFTSDYAKYLDAARAKEFIAWLVKGR-NH2 [G57],18.4
5,B1,59
6,HSQGTFTSDYARYLDARRAREFIAWLVRGRGK [G85],27.9

# Target: T1, GLP-1 receptor present in the plasma …
# Assay: 125I-GLP-1 displacement, RINm5F plasma membranes
# Protocol: Competitive binding of some polypeptides of the invention to RINm5F cell plasma membranes was measured as follows. Ninety-six-well GF/C filtration plates (Millipore, Bedford, Ma.) were blocked with 0.3% PEI for at least one hour and washed twice with binding buffer consisting of 20 mM Tris, 2 mM EDTA, pH 7.5, 1 mg/ml BSA, and 1 mg/ml bacitracin. […] The plates were dried, scintillant was added to each well, and cpm per well determined using a Wallac Microbeta counter.
row,Binder,IC50 [nM]
1,HSQGTFTSDYAKYLDARRAKEFIAWLVKGR-NH2 [G27],2.2
2,HSQGTFTSDYARYLDARRAKEFIAWLVKGR-NH2 [G55],9.8
3,HSQGTFTSDYAAYLDARRAKEFIAWLVKGR-NH2 [G56],6.6
4,HSQGTFTSDYAKYLDAARAKEFIAWLVKGR-NH2 [G57],14.7
5,B1,98.6
6,HSQGTFTSDYARYLDARRAREFIAWLVRGRGK [G85],1.5

# Target: T2, glucagon receptor present in the plasma …
# Assay: 125I-glucagon displacement, rat liver plasma membranes
# Protocol: Competitive binding of some polypeptides of the invention to rat liver plasma membranes was measured as follows. Ninety-six-well GF/C filtration plates (Millipore, Bedford, Ma.) were blocked with 0.1% PEI for at least one hour and washed twice with binding buffer consisting of 20 mM Tris, 2 mM EDTA, pH 7.5, 1 mg/ml BSA, and 1 mg/ml bacitracin. […] The plates were dried, scintillant was added to each well, and cpm per well determined using a Wallac Microbeta counter.
row,Binder,IC50 [nM]
1,HSQGTFTSDYAKYLDARRAKEFIAWLVKGR-NH2 [G27],69.3
2,HSQGTFTSDYARYLDARRAKEFIAWLVKGR-NH2 [G55],139
3,HSQGTFTSDYAAYLDARRAKEFIAWLVKGR-NH2 [G56],125
4,HSQGTFTSDYAKYLDAARAKEFIAWLVKGR-NH2 [G57],178
5,B1,620
6,HSQGTFTSDYARYLDARRAREFIAWLVRGRGK [G85],16.1
